# Experiments:
# [1] = test system: HIV-1 IIIB virus; assay: In cellulo HIV-1 infection assay (CEM-GFP cells, flow cytometry); format: cell-based
# Description: The ELMO grafts were tested as potential inhibitors of HIV-1 in cellulo. The validated assay uses a Lymphoblastoid CD4^+ T-cell line with stably integrated EGFP (CEM-GFP) under the control of the HIV-1 long terminal repeat (LTR) promoter. 293T cells are simultaneously transfected with HIV-1 IIIB virus. The infected cells and non-infected cells are mixed together along with the desired inhibitor. If infection succeeds the number of infected GFP^+ cells increases, which can be measured by flow cytometry (FIG. 18). The inhibition of each ELMO construct was determined in a dose depended manner and compared to C34 and T20 (FIG. 19).
# [2] = biological target: T1, 5-helix (Human immunodeficiency virus type 1 group M subtype B, UniProt P04578, C598G/DEL583-596/DEL601-623/N624G); settings: untagged ligand, E. coli cell lysate, Ni-NTA
# Description: Lysate Ni-NTA Pulldown Assay: GLUE-Cpep was cloned into MCS1 of pETDuet-1 using restriction enzymes NcoI and NotI. The 5 helix with a C-terminal His6× tag was cloned into MCS2 of pETDuet-1 using the restriction enzymes NdeI and KpnI. Completed constructs were transformed into BL21s (DE3). Cells containing the co-expressed pair were inoculated and induced as described previously. Cells were spun down and resuspended in lysis buffer (100 mM NaCl, 20 mM Tris pH 7.4, 10 mM (NH4)2SO4), lysed by sonication, and spun down to remove cell debris. Cleared lysate was incubated with 200 μL Ni-NTA agarose resin for 1 hour. Ni-NTA agarose was washed with 8 mL lysis buffer and with 10 mM imidazole. Proteins were eluted with 500 μL lysis buffer containing 400 mM imidazole.
# [3] = biological target: T1, 5-helix; settings: E. coli cell lysate, FLAG-tagged ligand, Ni-NTA plates
# Description: ELISA: Separately, wt-GLUE, GLUE-Cpep, and the C-peptide were cloned into MCS1 of pETDuet-1 with FLAG tags using restriction enzymes NcoI and NotI. The 5-helix with a C-terminal His6× tag was cloned into MCS2 of pETDuet-1 using restriction enzymes NdeI and KpnI. Completed constructs were transformed into BL21s (DE3). Cells containing the co-expressed pair were inoculated and induced as described previously. Cells were spun down and resuspended in lysis buffer (20 mM Hepes pH 7.5, 100 mM NaCl), lysed by sonication, and spun down to remove cell debris. Cleared lysates were incubated on clear Ni-NTA coated plates for 1 hour at room temperature and washed 4× with 200 μL wash buffer (20 mM Hepes pH 7.5, 150 mM NaCl, 0.05% Tween-20, 0.01 mg/mL BSA). HRP-conjugated mouse anti-DDDDK antibody in LiCor Blocking Buffer was incubated for 1 hour at room temperature, followed by 4×200 μL washes. Colorimetry was developed using TMB-One substrate and absorbance was measured at 655 nm on a SynergyMx Microplate Reader.
# [4] = Circular dichroism thermal denaturation at 222 nm; format: physicochemical; settings: CD 222 nm, Tris buffer pH 7.4, 0 to 90 °C
# Description: Circular Dichroism: Proteins were purified as described above. […] Wavelength data are the average of three scans from 250 nm to 200 nm in 1 nm steps at 25° C. Thermal denaturation experiments at 222 nm were run from 0 to 90° C. in two-degree steps at a two-degree/minute rate of increase with one-minute equilibration and data averaging at each temperature. Tm values were obtained from minima of the first derivative of θ versus 1/T plots.
# [5] = room temperature (~25 °C)
# Description: Protein Purification: Genes were cloned into pETDuet-1 using restriction enzymes BamHI and PacI, downstream of a His6× tag and transformed into BL21s (DE3). Cells were grown in 2.5 L LB cultures containing 50 μg/mL carbenicillin at 37° C. to OD600=0.5 and induced with 1 mM IPTG at 25° C. overnight. Cells were then collected by centrifugation, resuspended in Tris buffer (20 mM Tris pH 7.4, 100 mM NaCl, 10 mM (NH4)2SO4) and stored at −20° C. Frozen pellets were thawed and sonicated with 1 second pulses for 2 minutes. The lysate was cleared by centrifugation (15,000 rpm 30 min.) and the supernatant was mixed with 1 mL of Ni-NTA agarose resin for 1 hour at 4° C. The resin was collected by centrifugation (4,750 rpm, 10 min.). The resin was sequentially washed with 50 mL of buffer containing 20 mM imidazole, 10 mL buffer containing 50 mM imidazole, and 5 mL buffer containing 100 mM imidazole. […] The proteins were dialyzed against Tris buffer and analyzed for purity by SDS-PAGE shown below. Purified protein concentrations were quantified using Beer's Law at an absorbance of 280 nm, following standard practice (Grimsley, G. R.; Pace, C. N. Current Protocols in Protein Science (2003), 3.1.1-3.1.9).
# All proteins were produced recombinantly in a pET vector with a His6× tag. […] Their expression was quantified in mg/L and compared to wtGLUE (FIG. 12A). […]
# [6] = biological target: T1, 5-helix; settings: 50 nM, 25% human serum, 37 °C, 4 or 12 h
# Description: Colorimetry was developed using TMB-One substrate and absorbance was measured at 655 nm on a SynergyMx Microplate Reader.
# [7] = biological target: T1, 5-helix; format: cell-based, HIV; parameters: N-terminal superpositive GFP tethered to the 5-helix was cloned into pETDuet-1; His6 (N); His6 (C); expressed in transfected cells; host or cells: E. coli BL21 (DE3), pETDuet-1; settings: E. coli co-expressing N-spGFP-5-helix and C-spGFP fusion, flow cytometry
# Description: Split-Superpositive GFP (split-spGFP) Reassembly Assay: Split-spGFP reassembly experiments were performed as previously described (Chapman, A. M.; 3 McNaughton, B. R. Molecular BioSystems 2012, 8, 2036). […] The completed construct was transformed into BL21s (DE3) and the cells were made electrocompetent via standard protocols. Separately, GLUE-Cpep and C-peptide tethered to the C-terminal fragment of superpositive GFP were independently cloned into pBAD using restriction enzymes NcoI and BsrGI. Constructs were electroporated into electrocompetent BL21s (DE3) containing the N-terminal superpositive GFP plasmid, pulsing at 1.8 kV in a 1 mm cuvette. Cells were allowed to recover at 37° C. for 1 hour, and then plated onto agar plates containing carbenicillin and kanamycin. Individual colonies were picked and passaged once, followed by induction at 37° C. with 1 mM IPTG and 0.2% arabinosewhen cultures reached an OD600 of 0.5. After 6 hours, cells were spun down and resuspended in 5 mL PBS. GFP fluorescence was measured by MoFlo Flow Cytometer.
Molecule,inhibition of HIV-1 infection at 250 nM ([1]; 250 nM),co-purification with His6-tagged 5-helix [2],"inhibition of HIV-1 infection ([1]; dose dependent, compared to C34 and T20)",ELISA signal / affinity for 5-helix [3],Tm [4] [°C],solubility and folding in aqueous solution [5],ELISA signal for 5-helix after pre-incubation with human serum [6],interaction-dependent GFP reassembly fluorescence [7]
C26-ELMO: shortened C-peptide grafted onto N-terminal helix of ELMO (SEQ ID NO:7) (WMEWDREINNYTSLIHSLIEESQNQQKQQRLNRLVE),some inhibition of infection,could also be purified alongside 5-Helix-His6×,–,–,–,–,–,–
"wtELMO: wild-type form of ELMO (Engulfment and Cell Motility) PTB domain, PDB 2VSZ (protein) PILELKEKIQPEILELIKQQRLNRLVEGTCFRKLNARRRQDKFWYCRLSPNHKVLHYGDLEESPQGEVPHDSLQDKLPVADIKAVVTGKDCPHMKEKGALKQNKEVLELAFSILYDSNCQLNFIAPDKHEYCIWTDGLNALLGK",–,–,no inhibitory effect,strong ELISA signal,–,–,–,–
GLUE-Cpep: helix-grafted GLUE PH domain displaying gp41 C-peptide on its C-terminal helix (grafted helix SEQ ID NO:3) (protein) MEYWHYVETTSSGQPLLREGEKDIAIDQSVGLYHGKSKILQRQRGRIFLTSQRIIYIDDAKPTQNSLGLELDDLAYVNYSSGFLTRSPALILFFKDPSSSTEFVQLSFRKSDGVWFSWATEIALYTILIHSLIEESQNQQEKNEQELL,–,excellent selectivity,–,slightly better affinity than the native C-peptide,~79,soluble and well-folded,remains functional,highly fluorescent

# From patent US10927157B2, “Helix-grafted proteins as inhibitors of disease-relevant protein-protein interactions” (priority 2014, dated 2021)
